# Test results from patent publication US20260001928A1 (CORTERIA PHARMACEUTICALS, priority 2022, published 2026).
# *1 amine or outer side, *2 acyl side, *3 side chain or, on linkers, in order; H or OH if unused. Primed or numbered codes have the meaning given here. Where no end group is shown, it is not given here. Side-chain parts run from the residue outwards. [ ]: non-standard residue; d: D form. The star is where a group is joined. Thp′ = 4-amino-tetrahydro-2H-pyran-4-yl-acetic acid, O=C(CC1(N[*:1])CCOCC1)[*:2]; C18 diacid = O=C(O)CCCCCCCCCCCCCCCCC(=O)*; C16 diacid = O=C(O)CCCCCCCCCCCCCCC(=O)*; γGlu = O=C(O)[C@H](CCC(=O)[*:2])N[*:1]; NMeI = CC[C@H](C)[C@H](NC)C(=O)O; Pentanoyl = CCCCC(=O)*; AEEA = NCCOCCOCC(=O)O; Aib = CC(C)(N)C(=O)O; Butyryl = CCCC(=O)*
# T1: CRF1R receptor (UniProt P34998 24-415, limits assumed)
# T1 sequence (looked up): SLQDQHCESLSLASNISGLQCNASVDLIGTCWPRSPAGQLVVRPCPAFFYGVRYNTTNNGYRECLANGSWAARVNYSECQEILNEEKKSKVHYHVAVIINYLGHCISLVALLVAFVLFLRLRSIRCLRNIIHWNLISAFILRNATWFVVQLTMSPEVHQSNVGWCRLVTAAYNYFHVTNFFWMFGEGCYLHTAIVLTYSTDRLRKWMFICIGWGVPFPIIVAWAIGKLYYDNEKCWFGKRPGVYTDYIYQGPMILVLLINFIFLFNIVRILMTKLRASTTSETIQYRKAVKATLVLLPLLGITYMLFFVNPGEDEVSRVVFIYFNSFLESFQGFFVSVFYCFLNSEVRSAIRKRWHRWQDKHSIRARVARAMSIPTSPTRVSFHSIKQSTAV
# B1: SEQ ID NO 200 (peptide)
# peptide: [NMeI]VLSLD[dV]PIKLK([AEEA-AEEA-γGlu-C18 diacid])KILLEQEKQK[Aib]QREQAETN[Aib]QILAQV-NH2
# modifications: N-terminus assumed
# SMILES: CC[C@H](C)[C@H](NC)C(=O)N[C@H](C(=O)N[C@@H](CC(C)C)C(=O)N[C@@H](CO)C(=O)N[C@@H](CC(C)C)C(=O)N[C@@H](CC(=O)O)C(=O)N[C@@H](C(=O)N1CCC[C@H]1C(=O)N[C@H](C(=O)N[C@@H](CCCCN)C(=O)N[C@@H](CC(C)C)C(=O)N[C@@H](CCCCNC(=O)COCCOCCNC(=O)COCCOCCNC(=O)CC[C@H](NC(=O)CCCCCCCCCCCCCCCCC(=O)O)C(=O)O)C(=O)N[C@@H](CCCCN)C(=O)N[C@H](C(=O)N[C@@H](CC(C)C)C(=O)N[C@@H](CC(C)C)C(=O)N[C@@H](CCC(=O)O)C(=O)N[C@@H](CCC(N)=O)C(=O)N[C@@H](CCC(=O)O)C(=O)N[C@@H](CCCCN)C(=O)N[C@@H](CCC(N)=O)C(=O)N[C@@H](CCCCN)C(=O)NC(C)(C)C(=O)N[C@@H](CCC(N)=O)C(=O)N[C@@H](CCCNC(=N)N)C(=O)N[C@@H](CCC(=O)O)C(=O)N[C@@H](CCC(N)=O)C(=O)N[C@@H](C)C(=O)N[C@@H](CCC(=O)O)C(=O)N[C@H](C(=O)N[C@@H](CC(N)=O)C(=O)NC(C)(C)C(=O)N[C@@H](CCC(N)=O)C(=O)N[C@H](C(=O)N[C@@H](CC(C)C)C(=O)N[C@@H](C)C(=O)N[C@@H](CCC(N)=O)C(=O)N[C@H](C(N)=O)C(C)C)[C@@H](C)CC)[C@@H](C)O)[C@@H](C)CC)[C@@H](C)CC)C(C)C)C(C)C
# B2: SEQ ID NO 7 (peptide)
# peptide: Butyryl-VLSLD[dV]PIKLK([γGlu-C16 diacid])QILLKQERQKKQREQAEKNKQILEQV-NH2
# SMILES: CCCC(=O)N[C@H](C(=O)N[C@@H](CC(C)C)C(=O)N[C@@H](CO)C(=O)N[C@@H](CC(C)C)C(=O)N[C@@H](CC(=O)O)C(=O)N[C@@H](C(=O)N1CCC[C@H]1C(=O)N[C@H](C(=O)N[C@@H](CCCCN)C(=O)N[C@@H](CC(C)C)C(=O)N[C@@H](CCCCNC(=O)CC[C@H](NC(=O)CCCCCCCCCCCCCCC(=O)O)C(=O)O)C(=O)N[C@@H](CCC(N)=O)C(=O)N[C@H](C(=O)N[C@@H](CC(C)C)C(=O)N[C@@H](CC(C)C)C(=O)N[C@@H](CCCCN)C(=O)N[C@@H](CCC(N)=O)C(=O)N[C@@H](CCC(=O)O)C(=O)N[C@@H](CCCNC(=N)N)C(=O)N[C@@H](CCC(N)=O)C(=O)N[C@@H](CCCCN)C(=O)N[C@@H](CCCCN)C(=O)N[C@@H](CCC(N)=O)C(=O)N[C@@H](CCCNC(=N)N)C(=O)N[C@@H](CCC(=O)O)C(=O)N[C@@H](CCC(N)=O)C(=O)N[C@@H](C)C(=O)N[C@@H](CCC(=O)O)C(=O)N[C@@H](CCCCN)C(=O)N[C@@H](CC(N)=O)C(=O)N[C@@H](CCCCN)C(=O)N[C@@H](CCC(N)=O)C(=O)N[C@H](C(=O)N[C@@H](CC(C)C)C(=O)N[C@@H](CCC(=O)O)C(=O)N[C@@H](CCC(N)=O)C(=O)N[C@H](C(N)=O)C(C)C)[C@@H](C)CC)[C@@H](C)CC)[C@@H](C)CC)C(C)C)C(C)C
# B3: SEQ ID NO 203 (peptide)
# peptide: Ac-IVLSLD[dV]PIKLK([AEEA-γGlu-C18 diacid])KILLEQEKQKKQREQAETN[Aib]QILAQV-NH2
# SMILES: CC[C@H](C)[C@H](NC(C)=O)C(=O)N[C@H](C(=O)N[C@@H](CC(C)C)C(=O)N[C@@H](CO)C(=O)N[C@@H](CC(C)C)C(=O)N[C@@H](CC(=O)O)C(=O)N[C@@H](C(=O)N1CCC[C@H]1C(=O)N[C@H](C(=O)N[C@@H](CCCCN)C(=O)N[C@@H](CC(C)C)C(=O)N[C@@H](CCCCNC(=O)COCCOCCNC(=O)CC[C@H](NC(=O)CCCCCCCCCCCCCCCCC(=O)O)C(=O)O)C(=O)N[C@@H](CCCCN)C(=O)N[C@H](C(=O)N[C@@H](CC(C)C)C(=O)N[C@@H](CC(C)C)C(=O)N[C@@H](CCC(=O)O)C(=O)N[C@@H](CCC(N)=O)C(=O)N[C@@H](CCC(=O)O)C(=O)N[C@@H](CCCCN)C(=O)N[C@@H](CCC(N)=O)C(=O)N[C@@H](CCCCN)C(=O)N[C@@H](CCCCN)C(=O)N[C@@H](CCC(N)=O)C(=O)N[C@@H](CCCNC(=N)N)C(=O)N[C@@H](CCC(=O)O)C(=O)N[C@@H](CCC(N)=O)C(=O)N[C@@H](C)C(=O)N[C@@H](CCC(=O)O)C(=O)N[C@H](C(=O)N[C@@H](CC(N)=O)C(=O)NC(C)(C)C(=O)N[C@@H](CCC(N)=O)C(=O)N[C@H](C(=O)N[C@@H](CC(C)C)C(=O)N[C@@H](C)C(=O)N[C@@H](CCC(N)=O)C(=O)N[C@H](C(N)=O)C(C)C)[C@@H](C)CC)[C@@H](C)O)[C@@H](C)CC)[C@@H](C)CC)C(C)C)C(C)C
# B4: SEQ ID NO 197 (peptide)
# peptide: Ac-IVLSLD[dV]PIKLK([AEEA-AEEA-γGlu-C18 diacid])KILLEQEKQK[Aib]QREQAETN[Aib]QILAQV-NH2
# SMILES: CC[C@H](C)[C@H](NC(C)=O)C(=O)N[C@H](C(=O)N[C@@H](CC(C)C)C(=O)N[C@@H](CO)C(=O)N[C@@H](CC(C)C)C(=O)N[C@@H](CC(=O)O)C(=O)N[C@@H](C(=O)N1CCC[C@H]1C(=O)N[C@H](C(=O)N[C@@H](CCCCN)C(=O)N[C@@H](CC(C)C)C(=O)N[C@@H](CCCCNC(=O)COCCOCCNC(=O)COCCOCCNC(=O)CC[C@H](NC(=O)CCCCCCCCCCCCCCCCC(=O)O)C(=O)O)C(=O)N[C@@H](CCCCN)C(=O)N[C@H](C(=O)N[C@@H](CC(C)C)C(=O)N[C@@H](CC(C)C)C(=O)N[C@@H](CCC(=O)O)C(=O)N[C@@H](CCC(N)=O)C(=O)N[C@@H](CCC(=O)O)C(=O)N[C@@H](CCCCN)C(=O)N[C@@H](CCC(N)=O)C(=O)N[C@@H](CCCCN)C(=O)NC(C)(C)C(=O)N[C@@H](CCC(N)=O)C(=O)N[C@@H](CCCNC(=N)N)C(=O)N[C@@H](CCC(=O)O)C(=O)N[C@@H](CCC(N)=O)C(=O)N[C@@H](C)C(=O)N[C@@H](CCC(=O)O)C(=O)N[C@H](C(=O)N[C@@H](CC(N)=O)C(=O)NC(C)(C)C(=O)N[C@@H](CCC(N)=O)C(=O)N[C@H](C(=O)N[C@@H](CC(C)C)C(=O)N[C@@H](C)C(=O)N[C@@H](CCC(N)=O)C(=O)N[C@H](C(N)=O)C(C)C)[C@@H](C)CC)[C@@H](C)O)[C@@H](C)CC)[C@@H](C)CC)C(C)C)C(C)C
# B5: SEQ ID NO 202 (peptide)
# peptide: Pentanoyl-VLSLD[dV]PIKLK([AEEA-AEEA-γGlu-C18 diacid])KILLEQEKQK[Aib]QREQAETN[Aib]QILAQV-NH2
# SMILES: CCCCC(=O)N[C@H](C(=O)N[C@@H](CC(C)C)C(=O)N[C@@H](CO)C(=O)N[C@@H](CC(C)C)C(=O)N[C@@H](CC(=O)O)C(=O)N[C@@H](C(=O)N1CCC[C@H]1C(=O)N[C@H](C(=O)N[C@@H](CCCCN)C(=O)N[C@@H](CC(C)C)C(=O)N[C@@H](CCCCNC(=O)COCCOCCNC(=O)COCCOCCNC(=O)CC[C@H](NC(=O)CCCCCCCCCCCCCCCCC(=O)O)C(=O)O)C(=O)N[C@@H](CCCCN)C(=O)N[C@H](C(=O)N[C@@H](CC(C)C)C(=O)N[C@@H](CC(C)C)C(=O)N[C@@H](CCC(=O)O)C(=O)N[C@@H](CCC(N)=O)C(=O)N[C@@H](CCC(=O)O)C(=O)N[C@@H](CCCCN)C(=O)N[C@@H](CCC(N)=O)C(=O)N[C@@H](CCCCN)C(=O)NC(C)(C)C(=O)N[C@@H](CCC(N)=O)C(=O)N[C@@H](CCCNC(=N)N)C(=O)N[C@@H](CCC(=O)O)C(=O)N[C@@H](CCC(N)=O)C(=O)N[C@@H](C)C(=O)N[C@@H](CCC(=O)O)C(=O)N[C@H](C(=O)N[C@@H](CC(N)=O)C(=O)NC(C)(C)C(=O)N[C@@H](CCC(N)=O)C(=O)N[C@H](C(=O)N[C@@H](CC(C)C)C(=O)N[C@@H](C)C(=O)N[C@@H](CCC(N)=O)C(=O)N[C@H](C(N)=O)C(C)C)[C@@H](C)CC)[C@@H](C)O)[C@@H](C)CC)[C@@H](C)CC)C(C)C)C(C)C
# B6: SEQ ID NO 201 (peptide)
# peptide: Pentanoyl-VLSLD[dV]PIKLK([AEEA-AEEA-γGlu-C18 diacid])KILLEQEKQKKQREQAETN[Aib]QILAQV-NH2
# SMILES: CCCCC(=O)N[C@H](C(=O)N[C@@H](CC(C)C)C(=O)N[C@@H](CO)C(=O)N[C@@H](CC(C)C)C(=O)N[C@@H](CC(=O)O)C(=O)N[C@@H](C(=O)N1CCC[C@H]1C(=O)N[C@H](C(=O)N[C@@H](CCCCN)C(=O)N[C@@H](CC(C)C)C(=O)N[C@@H](CCCCNC(=O)COCCOCCNC(=O)COCCOCCNC(=O)CC[C@H](NC(=O)CCCCCCCCCCCCCCCCC(=O)O)C(=O)O)C(=O)N[C@@H](CCCCN)C(=O)N[C@H](C(=O)N[C@@H](CC(C)C)C(=O)N[C@@H](CC(C)C)C(=O)N[C@@H](CCC(=O)O)C(=O)N[C@@H](CCC(N)=O)C(=O)N[C@@H](CCC(=O)O)C(=O)N[C@@H](CCCCN)C(=O)N[C@@H](CCC(N)=O)C(=O)N[C@@H](CCCCN)C(=O)N[C@@H](CCCCN)C(=O)N[C@@H](CCC(N)=O)C(=O)N[C@@H](CCCNC(=N)N)C(=O)N[C@@H](CCC(=O)O)C(=O)N[C@@H](CCC(N)=O)C(=O)N[C@@H](C)C(=O)N[C@@H](CCC(=O)O)C(=O)N[C@H](C(=O)N[C@@H](CC(N)=O)C(=O)NC(C)(C)C(=O)N[C@@H](CCC(N)=O)C(=O)N[C@H](C(=O)N[C@@H](CC(C)C)C(=O)N[C@@H](C)C(=O)N[C@@H](CCC(N)=O)C(=O)N[C@H](C(N)=O)C(C)C)[C@@H](C)CC)[C@@H](C)O)[C@@H](C)CC)[C@@H](C)CC)C(C)C)C(C)C
# Biological target: human corticotropin-releasing factor 2a (CRF2a receptor) (human), Q13324
# Sequence (Q13324 20-411): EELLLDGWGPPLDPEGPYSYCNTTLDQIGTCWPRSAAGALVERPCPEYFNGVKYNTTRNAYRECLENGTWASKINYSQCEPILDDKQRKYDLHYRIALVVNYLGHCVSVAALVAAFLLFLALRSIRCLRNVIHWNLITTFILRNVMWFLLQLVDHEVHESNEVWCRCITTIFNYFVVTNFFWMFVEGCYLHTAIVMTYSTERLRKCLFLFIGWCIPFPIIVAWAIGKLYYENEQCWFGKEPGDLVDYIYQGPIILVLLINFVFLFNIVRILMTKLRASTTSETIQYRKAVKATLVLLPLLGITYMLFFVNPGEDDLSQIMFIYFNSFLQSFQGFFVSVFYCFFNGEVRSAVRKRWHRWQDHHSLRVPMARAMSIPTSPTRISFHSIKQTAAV
# Assay: cell-based or functional assay
row,EC50 [nM] (cAMP),Binder
1,0.71,B1
2,0.06,B2
3,0.43,B3
4,1.28,B4
5,1.7,Ac-IVLSLD[dV]PIKLK([AEEA-AEEA-γGlu-C18 diacid])KILLEQEKQKKQREQAETN[Thp′]QILAQV-NH2 [SEQ ID NO 198]
6,1.73,B5
7,1.37,B6

# Biological target: T1, CRF1R receptor
# Assay: cell-based or functional assay
Emax (% I) [%],EC50 [nM],Binder
2,,B1
59,101,B2
3,,B3
5,,B4
8,> 250,Ac-IVLSLD[dV]PIKLK([AEEA-AEEA-γGlu-C18 diacid])KILLEQEKQKKQREQAETN[Thp′]QILAQV-NH2 [SEQ ID NO 198]
8,,B5
5,,B6
